Target: full length TCF1
Test: cell-based or functional assay

β-catenin (wild type), sequence (P35222 2-781): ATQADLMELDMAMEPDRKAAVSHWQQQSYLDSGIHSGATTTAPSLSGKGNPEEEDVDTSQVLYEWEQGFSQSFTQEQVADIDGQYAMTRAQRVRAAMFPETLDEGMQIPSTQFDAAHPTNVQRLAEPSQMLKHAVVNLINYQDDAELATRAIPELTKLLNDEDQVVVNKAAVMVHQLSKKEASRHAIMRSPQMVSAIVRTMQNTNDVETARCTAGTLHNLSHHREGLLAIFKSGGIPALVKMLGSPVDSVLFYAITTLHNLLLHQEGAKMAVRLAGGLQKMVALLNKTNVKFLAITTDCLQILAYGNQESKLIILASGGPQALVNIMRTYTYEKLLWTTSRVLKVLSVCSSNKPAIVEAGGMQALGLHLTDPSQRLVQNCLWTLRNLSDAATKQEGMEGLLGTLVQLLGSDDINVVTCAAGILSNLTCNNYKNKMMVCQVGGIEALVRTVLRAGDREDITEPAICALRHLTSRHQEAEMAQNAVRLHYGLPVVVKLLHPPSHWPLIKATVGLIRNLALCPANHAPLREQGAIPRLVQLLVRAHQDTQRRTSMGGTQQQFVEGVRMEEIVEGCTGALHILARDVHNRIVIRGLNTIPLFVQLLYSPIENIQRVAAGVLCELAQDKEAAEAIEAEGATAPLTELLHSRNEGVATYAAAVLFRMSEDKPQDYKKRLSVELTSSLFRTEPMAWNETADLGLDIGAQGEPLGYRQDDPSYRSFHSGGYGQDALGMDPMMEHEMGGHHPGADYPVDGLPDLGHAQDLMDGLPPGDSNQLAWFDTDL

## β-catenin (wild type)
  activation of luciferase reporter gene driven by the LEF1 promoter (-672, +305), co-transfection in 2017 T lymphocytes: 7 fold
